The supplement of paper PMC10567573
± gives the standard deviation.

Experiment: protein stability index of a GFP-peptide fusion (GPS, HEK-293T) (PSI 1-6); higher = more stable
Conditions: c terminus: a fixed tail appended
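Also: 24-mer peptide tiles fused after GFP, lentivirally expressed, FACS-sorted into six equal bins by GFP/DsRed ratio, decoded by Illumina sequencing, PSI is the read-weighted mean bin number.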

Row | Sequence | protein stability index (treatment: DMSO) | protein stability index (treatment: MLN4924 1 uM, 8 h)
1 | VFYCDPCRLRCHPPRGPLAKHRLV [TRIM9] | 2.19 ± 0.34 | 2.36 ± 0.29
2 | VGALLVYDIAKHLTYENVERWLKE [RAB11A] | 2.54 ± 0.32 | 2.32 ± 0.54
3 | VGYTTLVGNNHESWGWDLGRNRLY [SPSB1] | 2.26 ± 0.35 | 2.12 ± 0.25
4 | VIDGATALWCAAGAGHFEVVKLLV [FEM1B] | 2.49 ± 0.89 | 2.36 ± 0.35
5 | VIHRALDREQVSSYNITVTATDGG [PCDHGA10] | 3.27 ± 0.23 | 3.14 ± 0.28
6 | VIQPALPGQPLPGASVRGLHPVQK [TRAF3IP2] | 3.76 ± 0.34 | 3.66 ± 0.39
7 | VISPVIQLQPTFTPMRVALAGTFH [NSDHL] | 2.42 ± 0.54 | 2.1 ± 0.11
8 | VKARKQEIIKVTEQLIEAINNGDF [CAMK2D] | 2.59 ± 0.28 | 2.93 ± 0.3
9 | VKVHGLLKTFVKQTDHIKGIRQIT [GFOD1] | 2.53 ± 0.38 | 2.34 ± 0.41
10 | VKVVLIPVGQEIVIPFKVDTILKY [IQUB] | 3.98 ± 0.88 | 2.5 ± 0.79
11 | VLELLGPSLEDLFDLCDRTFSLKT [CSNK1G3] | 2.38 ± 0.57 | 2.36 ± 0.48
12 | VLGINRAYGKNSLSKNLIKMLSKA [AUH] |  | 2.244 ± 0.021
13 | VLIVDWDVHHGQGTQFTFDQDPSV [HDAC6] | 2.32 ± 0.42 | 2.13 ± 0.049
14 | VLQIDNARLAADDFRVKYETELAM [KRT18] | 3.04 ± 0.12 | 3.3 ± 0.33
15 | VLRSRIRFIHLVTGCVLGSSGKVL [POMT2] | 2.62 ± 0.59 | 2.63 ± 0.76
16 | VLSDINLKKGESECQYYIDKLEYL [NET1] | 2.72 ± 0.18 | 2.94 ± 0.33
17 | VLSLACAGGHLAVVELLLAHGADP [ANKRD17] | 2.3 ± 0.66 | 2.44 ± 0.95
18 | VLVHCEAGISRSPTICMAYLMKTK [DUSP5] | 2.77 ± 0.61 | 2.39 ± 0.41
19 | VNNDKSISVQELMGCLGVAKEDGK [SMOC2] | 4.47 ± 0.13 | 4.62 ± 0.19
20 | VNVDNLLAAAVVQEHSNSVGGQDT [C18orf25] | 5.05 ± 0.21 | 4.92 ± 0.43
21 | VPETIHDELQQSFQKSHNSLQRWE [PRIM1] | 3.88 ± 0.16 | 3.75 ± 0.24

Row | Sequence | protein stability index (treatment: DMSO) | protein stability index (treatment: MLN4924 1 uM, 8 h)
22 | VPFVRVKREREVDEDSEPEREVRA [USP39] | 5.15 ± 0.26 | 5.17 ± 0.14
23 | VPLGFHYETKYVVLSYLGLLSQEK [BCL2L13] | 3.25 ± 0.93 | 2.4 ± 0.91
24 | VPSSGYGAVTASKHSNSPPLVTPP [SMTNL2] | 4.29 ± 0.14 | 4.16 ± 0.15
25 | VPTTPGPASGSTFRGRRDVSGSWE [RETREG3] | 4.37 ± 0.2 | 4.44 ± 0.15
26 | VQTSVIGSNGYILNKPALQAQPLR [EHMT1] | 3.06 ± 0.34 | 3.17 ± 0.13
27 | VRLLLEFKAEVDPLSDKGTTPLQL [ASB7] | 2.16 ± 0.48 | 2.31 ± 0.4
28 | VRSTETVERDNMEEDNVEESEEEG [HDAC6] | 5.57 ± 0.45 | 5.72 ± 0.24
29 | VSEAGGSGRLSASWEPLSGPSTPS [FCHO1] | 4.54 ± 0.17 | 4.74 ± 0.2
30 | VSKVVKGGSSGKGTTLRGRSDADL [OAS1] | 4.36 ± 0.11 | 4.48 ± 0.15
31 | VSRMRTQRAFSIQTPEQYYFCYKA [PTPN9] | 2.56 ± 0.18 | 2.43 ± 0.27
32 | VSVNLEAFSQAISAIQALRSSVSR [MED27] | 3.17 ± 0.15 | 3.24 ± 0.28
33 | VTLGGVLRQQLVVSKELRMYDEKA [KLHL13] | 2.95 ± 0.25 | 3.02 ± 0.41
34 | VTLMVAKWTGDFFNKGIYDIHVGL [CLCN6] | 2.46 ± 0.4 | 3.58 ± 0.26
35 | VTLRQVLAAKERHCGELKRRLGLS [TPD52L2] | 2.35 ± 0.28 | 2.67 ± 0.2
36 | VTQNSTAEPSRFSSSDSDFDDEEP [FCHO1] | 5.52 ± 0.25 | 5.55 ± 0.14
37 | VTTHQPTNLVLPSNGSMHNYCPQQ [EDNRA] | 3.75 ± 0.2 | 3.77 ± 0.056
38 | VVDKETDNMYRLAHFSPFLYYQSQ [PDZK1] | 2.62 ± 0.35 | 
39 | VVHVSFPEVTSALLESLNQQRLQG [ZBTB22] | 2.27 ± 0.28 | 2.41 ± 0.21
40 | VVSSEGRQSRRQSVSRFFADSGAD [FBF1] | 4.25 ± 0.11 | 4.44 ± 0.31
41 | VVVFKALVTTHHLMVHGNERFIQY [SNAP91] | 3.2 ± 0.42 | 3.02 ± 0.5
42 | VYHPSPEESRDPTLYANNVQRVMA [LPCAT4] | 3.6 ± 0.13 | 3.81 ± 0.12

Row | Sequence | protein stability index (treatment: DMSO) | protein stability index (treatment: MLN4924 1 uM, 8 h)
43 | WEEAAPGRAVEHAMFLGDAAAHWY [MYORG] | 3.05 ± 0.47 | 3.15 ± 0.22
44 | WEQTHLTYRIENYTPDLPRADVDH [MMP1] | 3.95 ± 0.31 | 3.53 ± 0.3
45 | WFSLASVIFLLLFAPFIVYYFIMA [DHCR7] | 2.27 ± 0.53 | 2.34 ± 0.44
46 | WHLKQSPASPERDYSPYYKTIEEL [KRT13] | 3.26 ± 0.094 | 3.29 ± 0.26
47 | WHPAENIIAIAATNNLYIFQDKVN [PPP2R2C] | 2.6 ± 0.48 | 2.44 ± 0.31
48 | WIEQLNECKQLSESQVKSLCEKAK [PPP2CA] | 3.85 ± 0.18 | 3.87 ± 0.1
49 | WIVDKQHVYIGSAGLDWQSLGQMK [PLD5] | 2.44 ± 0.42 | 2.16 ± 0.24
50 | WKIALLFVAFALCMFCLYSFMPLV [SLC35F2] | 2.19 ± 0.51 | 2.69 ± 0.46
51 | WKLQKKEHPPEVSRETQRTPMNHQ [FBXO34] | 4.52 ± 0.11 | 4.49 ± 0.16
52 | WMENNGHVAGEQMLEDGPHNANRG [CCDC70] | 5.23 ± 0.39 | 5.25 ± 0.14
53 | WNDLRPKLSCLFAGPHSTLTPPCS [SNX8] | 2.27 ± 0.29 | 2.27 ± 0.39
54 | WSRNSKPVHTTILNPHIHLMGDES [CAMK2A] | 3.4 ± 0.28 | 3.53 ± 0.08
55 | WYDMFRDAAAILLDEQNKRPCRKF [ZMAT5] | 2.35 ± 0.22 | 2.33 ± 0.44
56 | YAFANVFHGWKYMFGLVIPLGVLQ [SLC2A12] | 3.19 ± 0.62 | 3.11 ± 0.52
57 | YAPSCAKCKKKITGEIMHALKMTW [PDLIM7] | 2.53 ± 0.33 | 2.44 ± 1
58 | YEIPHFRLKKVENIKIWLSLRSYL [PHTF1] | 2.8 ± 1 | 2.92 ± 0.9
59 | YEPLLSRVQAALVWERPARSALWC [RETREG3] | 2.39 ± 0.53 | 2.12 ± 0.22
60 | YESHSTSELEDLTEPEQRELKTKL [TPD52L3] | 5.63 ± 0.13 | 5.52 ± 0.11
61 | YFYHRETENEEQTQLTQNAVSCPY [KCNA4] | 3.88 ± 0.34 | 3.96 ± 0.17
62 | YGLPIMVTLMVAKWTGDFFNKGIY [CLCN6] | 2.98 ± 0.25 | 3.4 ± 0.42
63 | YIATQGSLPETFGDFWRMIWEQRS [PTPRD] | 2.21 ± 0.21 | 2.5 ± 0.55

Row | Sequence | protein stability index (treatment: DMSO) | protein stability index (treatment: MLN4924 1 uM, 8 h)
64 | YITKVSEEVTRLGAQVKELEEKCQ [TRIM15] | 4.07 ± 0.24 | 4.22 ± 0.37
65 | YKAKSRSPGSPVGEGTGSPPKWQI [ADD1] | 3.5 ± 0.28 | 3.76 ± 0.33
66 | YKDRQKFSEQVFKVASSDLVNMGI [FLOT1] | 2.52 ± 0.24 | 2.77 ± 0.29
67 | YKGHTDVVRYLLEQRADPNAKAHC [FEM1B] | 3.27 ± 0.44 | 3.6 ± 0.17
68 | YKPPALKKSNSPGTASSGSSRLPQ [ZC2HC1A] | 4.46 ± 0.079 | 4.51 ± 0.2
69 | YKRRIDAENSPYLNPQLVQPAKKP [ESRRG] | 4.01 ± 0.27 | 3.85 ± 0.33
70 | YLDPSVLSGVSCFVMFLCLADYLV [ARL6IP1] | 2.98 ± 0.21 | 2.97 ± 0.39
71 | YLLHPAAFHGAPSHLPTRSPSFPE [TBX6] | 2.49 ± 0.28 | 2.87 ± 0.26
72 | YLQIFATRRSCIDESQISAEEAED [FAM189A2] | 3.71 ± 0.14 | 3.92 ± 0.32
73 | YPVVVAESMYGDFQEAMTHLQHKL [TENT5D] | 2.49 ± 0.15 | 2.81 ± 0.38
74 | YQETISDVLNDAIFDEDHDEMVIV [GCH1] | 3.98 ± 0.09 | 4.02 ± 0.25
75 | YQKILAGKIDFPRHLDFHVKDLIK [PRKX] | 2.19 ± 0.97 | 2.1 ± 0.4
76 | YRFFKYIENRDVAKSVLKERGLKK [BTBD10] | 2.44 ± 0.25 | 2.52 ± 0.3
77 | YRNLTHNPPSDFSFQNMNSKRKAE [STK38L] | 4.47 ± 0.17 | 4.58 ± 0.087
78 | YTCHECGDSFSHSSNRIRHLRTHT [ZNF263] | 3.04 ± 0.18 | 3.32 ± 0.33
79 | YTFIIVPKMLVDLLSQKKTISFLG [OR10K2] | 3.09 ± 0.14 | 2.7 ± 0.28
80 | YTMLLGRPPFETTNLKETYRCIRE [PLK2] | 2.32 ± 0.3 | 2.4 ± 0.22
81 | YTYEKLLWTTSRVLKVLSVCSSNK [CTNNB1] | 2.47 ± 0.36 | 2.22 ± 0.43
82 | YVKAKKSIDKDEEFAGSSPQSSKS [FAN1] | 3.57 ± 0.67 | 4.16 ± 0.65
83 | YVKVFEHFLENLDKSRKGELLKKS [PRIM1] | 1.96 ± 0.31 | 2.09 ± 0.48
84 | YYSPILDQWTPIAAMLRGQSDVGV [KLHL13] | 2.4 ± 0.3 | 2.26 ± 0.3
